Measured values published in patent US20140105889A1 (published 2014).

Biological target: T1, human FcγRIIIa(F) (human, UniProt P08637 17-208, limits assumed)
T1 construct: also called FcgRIIIaF; FcγRIIIa allotype F158
Test: SPR (Biacore), antibody captured, FcγR as analyte
T1 sequence (P08637 other isoform, or with tags, fused parts or gaps limits assumed): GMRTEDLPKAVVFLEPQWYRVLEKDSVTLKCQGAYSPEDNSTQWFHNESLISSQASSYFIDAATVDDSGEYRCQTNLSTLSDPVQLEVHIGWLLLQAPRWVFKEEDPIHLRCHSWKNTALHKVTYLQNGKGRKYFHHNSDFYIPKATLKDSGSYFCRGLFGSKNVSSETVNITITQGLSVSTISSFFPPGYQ

relative binding activity (amount bound / amount bound by GpH7-B3/GpL16-k0 x100)	Binder
39 % of GpH7-B3/GpL16-k0	GpH7-B3 P271F / GpL16-k0 (antibody, human IgG1, B3 variant: anti-glypican-3 IgG1 (constant region B3 = G1d with K439E) with one substitution, EU numbering; also called B3 variant P271F; copies: 2 + 2) heavy: not shown light: DIVMTQSPLSLPVTPGEPASISCQASESLVHSNRNTYLHWYLQKPGQSPQLLIYKVSNRFSGVPDRFSGSGSGTDFTLKISRVEAEDVGVYYCSQNTHVPPTFGQGTKVEIE
76 % of GpH7-B3/GpL16-k0	GpH7-B3 P271R / GpL16-k0 (antibody, human IgG1, B3 variant: anti-glypican-3 IgG1 (constant region B3 = G1d with K439E) with one substitution, EU numbering; also called B3 variant P271R; copies: 2 + 2) heavy: not shown light: DIVMTQSPLSLPVTPGEPASISCQASESLVHSNRNTYLHWYLQKPGQSPQLLIYKVSNRFSGVPDRFSGSGSGTDFTLKISRVEAEDVGVYYCSQNTHVPPTFGQGTKVEIE
50 % of GpH7-B3/GpL16-k0	GpH7-B3 P271H / GpL16-k0 (antibody, human IgG1, B3 variant: anti-glypican-3 IgG1 (constant region B3 = G1d with K439E) with one substitution, EU numbering; also called B3 variant P271H; copies: 2 + 2) heavy: not shown light: DIVMTQSPLSLPVTPGEPASISCQASESLVHSNRNTYLHWYLQKPGQSPQLLIYKVSNRFSGVPDRFSGSGSGTDFTLKISRVEAEDVGVYYCSQNTHVPPTFGQGTKVEIE

The remaining lines, values behind:

Binder	relative binding activity (amount bound / amount bound by GpH7-B3/GpL16-k0 x100)
GpH7-B3 D270A / GpL16-k0 (antibody, human IgG1, B3 variant: anti-glypican-3 IgG1 (constant region B3 = G1d with K439E) with one substitution, EU numbering; also called B3 variant D270A; copies: 2 + 2) heavy: not shown light: DIVMTQSPLSLPVTPGEPASISCQASESLVHSNRNTYLHWYLQKPGQSPQLLIYKVSNRFSGVPDRFSGSGSGTDFTLKISRVEAEDVGVYYCSQNTHVPPTFGQGTKVEIE	23 % of GpH7-B3/GpL16-k0
GpH7-B3 D270I / GpL16-k0 (antibody, human IgG1, B3 variant: anti-glypican-3 IgG1 (constant region B3 = G1d with K439E) with one substitution, EU numbering; also called B3 variant D270I; copies: 2 + 2) heavy: not shown light: DIVMTQSPLSLPVTPGEPASISCQASESLVHSNRNTYLHWYLQKPGQSPQLLIYKVSNRFSGVPDRFSGSGSGTDFTLKISRVEAEDVGVYYCSQNTHVPPTFGQGTKVEIE	23 % of GpH7-B3/GpL16-k0
GpH7-B3 D270Q / GpL16-k0 (antibody, human IgG1, B3 variant: anti-glypican-3 IgG1 (constant region B3 = G1d with K439E) with one substitution, EU numbering; also called B3 variant D270Q; copies: 2 + 2) heavy: not shown light: DIVMTQSPLSLPVTPGEPASISCQASESLVHSNRNTYLHWYLQKPGQSPQLLIYKVSNRFSGVPDRFSGSGSGTDFTLKISRVEAEDVGVYYCSQNTHVPPTFGQGTKVEIE	49 % of GpH7-B3/GpL16-k0
GpH7-B3 D270S / GpL16-k0 (antibody, human IgG1, B3 variant: anti-glypican-3 IgG1 (constant region B3 = G1d with K439E) with one substitution, EU numbering; also called B3 variant D270S; copies: 2 + 2) heavy: not shown light: DIVMTQSPLSLPVTPGEPASISCQASESLVHSNRNTYLHWYLQKPGQSPQLLIYKVSNRFSGVPDRFSGSGSGTDFTLKISRVEAEDVGVYYCSQNTHVPPTFGQGTKVEIE	17 % of GpH7-B3/GpL16-k0
GpH7-B3 D270M / GpL16-k0 (antibody, human IgG1, B3 variant: anti-glypican-3 IgG1 (constant region B3 = G1d with K439E) with one substitution, EU numbering; also called B3 variant D270M; copies: 2 + 2) heavy: not shown light: DIVMTQSPLSLPVTPGEPASISCQASESLVHSNRNTYLHWYLQKPGQSPQLLIYKVSNRFSGVPDRFSGSGSGTDFTLKISRVEAEDVGVYYCSQNTHVPPTFGQGTKVEIE	29 % of GpH7-B3/GpL16-k0
GpH7-B3 D270V / GpL16-k0 (antibody, human IgG1, B3 variant: anti-glypican-3 IgG1 (constant region B3 = G1d with K439E) with one substitution, EU numbering; also called B3 variant D270V; copies: 2 + 2) heavy: not shown light: DIVMTQSPLSLPVTPGEPASISCQASESLVHSNRNTYLHWYLQKPGQSPQLLIYKVSNRFSGVPDRFSGSGSGTDFTLKISRVEAEDVGVYYCSQNTHVPPTFGQGTKVEIE	19 % of GpH7-B3/GpL16-k0
GpH7-B3 D270N / GpL16-k0 (antibody, human IgG1, B3 variant: anti-glypican-3 IgG1 (constant region B3 = G1d with K439E) with one substitution, EU numbering; also called B3 variant D270N; copies: 2 + 2) heavy: not shown light: DIVMTQSPLSLPVTPGEPASISCQASESLVHSNRNTYLHWYLQKPGQSPQLLIYKVSNRFSGVPDRFSGSGSGTDFTLKISRVEAEDVGVYYCSQNTHVPPTFGQGTKVEIE	13 % of GpH7-B3/GpL16-k0
GpH7-B3 D270H / GpL16-k0 (antibody, human IgG1, B3 variant: anti-glypican-3 IgG1 (constant region B3 = G1d with K439E) with one substitution, EU numbering; also called B3 variant D270H; copies: 2 + 2) heavy: not shown light: DIVMTQSPLSLPVTPGEPASISCQASESLVHSNRNTYLHWYLQKPGQSPQLLIYKVSNRFSGVPDRFSGSGSGTDFTLKISRVEAEDVGVYYCSQNTHVPPTFGQGTKVEIE	11 % of GpH7-B3/GpL16-k0
GpH7-B3 D270F / GpL16-k0 (antibody, human IgG1, B3 variant: anti-glypican-3 IgG1 (constant region B3 = G1d with K439E) with one substitution, EU numbering; also called B3 variant D270F; copies: 2 + 2) heavy: not shown light: DIVMTQSPLSLPVTPGEPASISCQASESLVHSNRNTYLHWYLQKPGQSPQLLIYKVSNRFSGVPDRFSGSGSGTDFTLKISRVEAEDVGVYYCSQNTHVPPTFGQGTKVEIE	12 % of GpH7-B3/GpL16-k0
GpH7-B3 D270L / GpL16-k0 (antibody, human IgG1, B3 variant: anti-glypican-3 IgG1 (constant region B3 = G1d with K439E) with one substitution, EU numbering; also called B3 variant D270L; copies: 2 + 2) heavy: not shown light: DIVMTQSPLSLPVTPGEPASISCQASESLVHSNRNTYLHWYLQKPGQSPQLLIYKVSNRFSGVPDRFSGSGSGTDFTLKISRVEAEDVGVYYCSQNTHVPPTFGQGTKVEIE	33 % of GpH7-B3/GpL16-k0

Biological target: T2, human FcγRIIIa(F) (human, UniProt P08637 17-208, limits assumed)
T2 construct: also called FcgRIIIaF; FcγRIIIa allotype F158
Test: SPR (Biacore), captured antibody, FcγR analyte; bound amount relative to GpH7-B3/GpL16-k0 x100;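 further: receptor response divided by the antibody amount captured on the chip before comparison with the reference antibody, measured at 25 °C in HBS-EP+ running buffer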
T2 sequence (P08637 other isoform, or with tags, fused parts or gaps limits assumed): as the sequence (P08637 other isoform, or with tags, fused parts or gaps limits assumed) above
Procedure: Interaction between each modified antibody and Fcγ receptor prepared in the manner described above was analyzed using the Biacore T100 (GE Healthcare), Biacore T200 (GE Healthcare), Biacore A100 or Biacore 4000. HBS-EP+ (GE Healthcare) was used for the running buffer, and measurements were carried out at 25° C. The chips used were chips in which antigen peptides, Protein A (Thermo Scientific), Protein A/G (Thermo Scientific) or Protein L (ACTIGEN or BioVision) were immobilized on the Series S Sensor Chip CM5 (GE Healthcare) or Series S Sensor Chip CM4 (GE Healthcare) by amine coupling, or chips in which preliminarily biotinylated antigen peptides were allowed to interact and then immobilized on the Series S Sensor Chip SA (certified) (GE Healthcare). The target antibodies were captured on these sensor chips, Fcγ receptor diluted with the running buffer was allowed to interact, followed by measurement of the amount of bound antibody. The amounts bound were compared between antibodies. However, since the amount of Fcγ receptor bound depends on the amount of captured antibody, the values used for comparison were first corrected by dividing the amount of Fcγ receptor bound by the captured amount of each antibody. Through reaction with 10 mM glycine-HCl at pH 1.5, the sensor chips were regenerated by washing off antibody captured on the sensor chips and used repeatedly.
Binding strength was evaluated according to the following method based on the results of analyzing the interaction with each FcγR. […] That value was then further multiplied by 100, and the resulting value was used as an indicator of relative binding activity to each FcγR.

relative binding activity	Binder
-2 % of GpH7-B3/GpL16-k0	GpH7-B3/GpL16-k0 with P329R introduced into GpH7-B3 (antibody, human IgG1, Anti-glypican-3 human IgG1; constant region B3 (G1d with K439E); Fc variant; also called B3 variant; copies: 2 + 2) heavy: not shown light: DIVMTQSPLSLPVTPGEPASISCQASESLVHSNRNTYLHWYLQKPGQSPQLLIYKVSNRFSGVPDRFSGSGSGTDFTLKISRVEAEDVGVYYCSQNTHVPPTFGQGTKVEIE
-1 % of GpH7-B3/GpL16-k0	GpH7-B3/GpL16-k0 with N325R introduced into GpH7-B3 (antibody, human IgG1, Anti-glypican-3 human IgG1; constant region B3 (G1d with K439E); Fc variant; also called B3 variant; copies: 2 + 2) heavy: not shown light: DIVMTQSPLSLPVTPGEPASISCQASESLVHSNRNTYLHWYLQKPGQSPQLLIYKVSNRFSGVPDRFSGSGSGTDFTLKISRVEAEDVGVYYCSQNTHVPPTFGQGTKVEIE
0 % of GpH7-B3/GpL16-k0	GpH7-B3/GpL16-k0 with P329F introduced into GpH7-B3 (antibody, human IgG1, Anti-glypican-3 human IgG1; constant region B3 (G1d with K439E); Fc variant; also called B3 variant; copies: 2 + 2) heavy: not shown light: DIVMTQSPLSLPVTPGEPASISCQASESLVHSNRNTYLHWYLQKPGQSPQLLIYKVSNRFSGVPDRFSGSGSGTDFTLKISRVEAEDVGVYYCSQNTHVPPTFGQGTKVEIE
